This series addresses myelin basic protein.

myelin basic protein, sequence (P02687 whole entry): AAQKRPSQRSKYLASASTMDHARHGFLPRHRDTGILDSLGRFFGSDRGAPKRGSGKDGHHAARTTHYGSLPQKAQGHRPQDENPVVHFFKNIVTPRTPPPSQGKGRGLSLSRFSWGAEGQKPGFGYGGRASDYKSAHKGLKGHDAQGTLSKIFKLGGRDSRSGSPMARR

B1: wild type protein kinase Nitab4.5_0003679 g0060.2 (SEQ ID No. 3) (protein)
chain: MAIEDNESCGSRVVDSATTSGRHQRKKLEVYNEVLRRLKESNNVEALEPGFDDELWAHFNRLPTRYAIDVNVERAEDVLTHKRLLHLAHVPANRPAFDVRLVQVASVPDGNLRDSFHSSFAKKEVSRSVHPPPAFGSSPNLEALACEAIKSEVQDEDTAAPCANFSRPMHEITFSTDDKPKLLSQLTSLLAELGLNIQEAHAFSTVDGYSLDVFVVDGWPYEEVVRLRTALEREILRNEKSWPSPSQSFIKQEQDLIKREFDHLTIPFDGIDVWEIDHQLLKFEYKIASGSYGDLYKGTYCSQDVAIKILKSERLNTELQTEFAQEVYIMRKVRHKNVVQFIGACTRPPNLCIVTEYMSGGSVYDYLHKRKGSFKLPTLLKVAIDVAKGMNYLHQNNIIHRDLKAANLLMDENEVIKVADFGVARVKAQTGVMTAETGTYRWMAPEVIEHKPYDHKADVFSFGVVLWELLTGKLPYEYLTPLQAAIGVVQKGLRPTIPKHTPPRLAELLETCWQQDPTSRPDFSEIVDILQQIAKEVGDERADRCKEKSAGGFFSALRRGHH
Consider B1, for which the “in vitro kinase reaction; phosphorylation detected by Pro-Q Diamond phosphoprotein gel stain after SDS-PAGE” value was “K308 (i.e. the wild type SEQ ID No. 3) is an active protein kinase”.

B2: K308M variant of protein kinase Nitab4.5_0003679 g0060.2 (SEQ ID No. 3) (protein)
chain: MAIEDNESCGSRVVDSATTSGRHQRKKLEVYNEVLRRLKESNNVEALEPGFDDELWAHFNRLPTRYAIDVNVERAEDVLTHKRLLHLAHVPANRPAFDVRLVQVASVPDGNLRDSFHSSFAKKEVSRSVHPPPAFGSSPNLEALACEAIKSEVQDEDTAAPCANFSRPMHEITFSTDDKPKLLSQLTSLLAELGLNIQEAHAFSTVDGYSLDVFVVDGWPYEEVVRLRTALEREILRNEKSWPSPSQSFIKQEQDLIKREFDHLTIPFDGIDVWEIDHQLLKFEYKIASGSYGDLYKGTYCSQDVAIMILKSERLNTELQTEFAQEVYIMRKVRHKNVVQFIGACTRPPNLCIVTEYMSGGSVYDYLHKRKGSFKLPTLLKVAIDVAKGMNYLHQNNIIHRDLKAANLLMDENEVIKVADFGVARVKAQTGVMTAETGTYRWMAPEVIEHKPYDHKADVFSFGVVLWELLTGKLPYEYLTPLQAAIGVVQKGLRPTIPKHTPPRLAELLETCWQQDPTSRPDFSEIVDILQQIAKEVGDERADRCKEKSAGGFFSALRRGHH
For B2, the “in vitro kinase reaction; phosphorylation detected by Pro-Q Diamond phosphoprotein gel stain after SDS-PAGE” value was “the variant K308M is not an active kinase”.

These data come from patent US20220002743.
